Data on one substance can be found in patent US20160108105A1.

This experiment deals with FcγRI (UniProt P12314). Put plainly: ELISA, coated protein, soluble FcγRI 2 µg/ml. For orientation: An ELISA detects its analyte on a solid surface through an enzyme-linked reagent.
UniProt P12314, sequence (P12314 16-288 limits assumed): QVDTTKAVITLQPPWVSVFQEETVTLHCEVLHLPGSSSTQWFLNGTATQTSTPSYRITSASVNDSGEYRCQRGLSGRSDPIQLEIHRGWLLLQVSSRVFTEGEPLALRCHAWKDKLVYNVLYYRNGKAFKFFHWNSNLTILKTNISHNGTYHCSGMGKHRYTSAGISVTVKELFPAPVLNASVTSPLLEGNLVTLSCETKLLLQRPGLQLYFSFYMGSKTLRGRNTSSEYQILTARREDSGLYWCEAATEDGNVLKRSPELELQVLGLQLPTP

Consider “hGH-chimeric IgG4 variant: 4 amino acids at the N-terminus of IgG4 Fc CH2 domain replaced with 2 amino acids of IgD CH2 domain (Fc fusion)”, for which the FcγRI binding ability relative to hGH-IgG4Fc-wt (fold of hGH-IgG4Fc-wt) is 0.5.
